Five molecules from patent US20100055033A1 (GOVERNMENT OF THE UNITED STATES OF AMERICA AS REPRESENTED …, published 2010) can be followed below.

The target in assay [1] is human insulin (human, UniProt P01308 25-54; P01308 90-110, limits assumed). Kind of assay: screening of a human naive phage library; assay not named here.
Assay [2] deals with T1, human insulin-like growth factor II (human, UniProt P01344 25-91).
T1 construct: also called IGF-II; IGF II
The assay can be described thus: ELISA on IGF-II, one Fab concentration (not given). The procedure:
(§1) ELISA Binding Assay. Antigen was coated on narrow-well, 96-well plate at 50 ng/well overnight at 4° C. For phage ELISA, 10¹⁰ phage from each round of panning was incubated with antigen. Bound phage was detected with anti-M13-HRP polyclonal antibody (Pharmacia, Piscataway, N.J.). For soluble Fab binding assay, anti-Flag HRP conjugate was used to detect the binding.
For orientation: ELISA stands for enzyme-linked immunosorbent assay.

Assay [3] has as its target T2, recombinant human insulin-like growth factor I (human, UniProt P05019 49-118).
T2 construct: also called IGF-I; IGF I
Kind of assay: competition ELISA: m706 at 100 nM against the binding of IGF-I (50 nM) to soluble IGF-IR.

In assay [4] the target is T2, recombinant human insulin-like growth …. The assay can be described thus: competition ELISA: m708 at 400 nM against the binding of IGF-I (50 nM) to soluble IGF-IR.
Assay [5] deals with T1, human insulin-like growth factor II. The assay can be described thus: method not stated (FIG. 9).
The target of assay [6] is T2, recombinant human insulin-like growth …. The assay can be described thus: ELISA, Fab titrated on IGF-I. The procedure: as §1
The target is the same in assay [7]. Kind of assay: ELISA on IGF-I, one Fab concentration (not given), duplicate bars. The procedure: as §1

T1 sequence (P01344 25-91 limits assumed): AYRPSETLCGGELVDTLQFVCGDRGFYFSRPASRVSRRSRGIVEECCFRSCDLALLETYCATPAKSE
T2 sequence (P05019 49-118 limits assumed): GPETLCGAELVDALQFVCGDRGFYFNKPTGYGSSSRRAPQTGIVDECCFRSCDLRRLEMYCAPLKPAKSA
Chain of human insulin (P01308 25-54 limits assumed, chain 1 of 2): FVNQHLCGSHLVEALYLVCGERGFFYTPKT
Chain of human insulin (P01308 90-110 limits assumed, chain 2 of 2): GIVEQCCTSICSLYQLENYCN

B1: m706 Fab (Fab, V domains shown)
VH: EVQLVQSGVDVKKPGSSVKVSCKASGGTFSSYAISWVRQAPGQGLEWMGGIIPIFGTANYAQKFQGRVTITADESASTAYMELSSLRSEDTAVYYCASGYEGPLWAFDIWGQGTMVTVSS
VL: SQSVLTQPPSVSAAPGQRVSISCSGSSSNIGNYHVSWYQHLPGRAPKLLIYDNSKRPSGIPDRFSGSKSGTSATLDITGLQTGDEGDYYCATWDTSLRWVFGTGTKVTVL
notes: also called No. 6; IGF-I specific mAb
As to B1, the results for the binding result in assay [1], in assay [2] and in assay [3] were “no binding”, “no binding” and “binds”, respectively.

B2: m708 Fab (Fab, V domains shown)
VH: QVQLQQSGAEVKKPGSSVKVSCKASGGTFSSYAISWVRQAPGQGLEWMGGIIPILGIANYAQKFQGRVTITADESTSTAYMELSSLRSEDTAVYYCARGPRGYSYNFDYWGQGTLVTVSS
VL: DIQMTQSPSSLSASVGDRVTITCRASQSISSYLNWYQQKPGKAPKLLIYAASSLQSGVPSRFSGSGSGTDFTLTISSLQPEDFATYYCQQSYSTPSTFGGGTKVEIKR
notes: also called No. 8
Take B2: in assay [4], the binding result is “binds”.

B3: m708.2 IgG1 (antibody, V domains shown)
VH: QVQLQQSGAEVKKPGSSVKVSCKASGGTFSSYAISWVRQAPGQGLEWMGGIIPILGIANYAQKFQGRVTITADESTSTAYMELSSLRSEDTAVYYCARGPRGYSYNFDYWGQGTLVTVSS
VL: DIQMTQSPSSLSASVGDRVTIACRASQTISRYLNWYQQKPGKAPKLLIYAASSLQSGVSSRFSGSGSGTEFTLTISSLQPEDFATYFCQQTYSPPITFGQGTRLEIKR
notes: also called IgG708.2
In general, Kd refers to the constant that tells how readily two partners part at equilibrium. In assay [5], B3 registered a dissociation constant (Kd) of around 0.08 nM.

B4: m708.2 Fab (Fab, V domains shown)
VH: QVQLQQSGAEVKKPGSSVKVSCKASGGTFSSYAISWVRQAPGQGLEWMGGIIPILGIANYAQKFQGRVTITADESTSTAYMELSSLRSEDTAVYYCARGPRGYSYNFDYWGQGTLVTVSS
VL: DIQMTQSPSSLSASVGDRVTIACRASQTISRYLNWYQQKPGKAPKLLIYAASSLQSGVSSRFSGSGSGTEFTLTISSLQPEDFATYFCQQTYSPPITFGQGTRLEIKR
notes: also called clone m708.2
With B4, the binding result in assay [6] was “binds”.

B5: m705 Fab (Fab, V domains shown)
VH: QVQLVQSGVEVKKPGASVKVPCKASGYTFTSYYMHWVRQAPGQGLEWMGIINPSGGSTSYAQKFQGRVTMTRDTSTSTVYMELSSLRSEDTAVYYCARDDFWSGAVGMDVWGQGTTVTVSS
VL: DIQMTQSPATLSLSPGERATLSCRASQDVGSDLAWYQQKPGQPPRLLVSDASNRATGIPARFSGSGSGTDFKLTINSLEPEDSAVYYCQQRRRWPPGATFGGGTKVEIKR
notes: also called No. 5; IGF-I specific mAb
As to B5, the binding result is given as “no binding” in assay [1], “no binding” in assay [2] and “binds” in assay [7].
